Source: patent publication US20260191907A1 (INSTITUT CURIE, published 2026)

How the values were obtained:
[1] = target: T1, FGFR4 expressed on the surface of RMS cells (Rh4-FR4 wt, Rh30) (human, UniProt P22455 22-802); assay: flow cytometry of DiR fluorescence, liposomes at 0.5 mM lipid on Rh4-FR4 wt cells; reference L-mCh
T1 construct: Endogenous FGFR4 of the rhabdomyosarcoma cell lines; The whole entry includes the signal peptide; also called cell-surface FGFR4; Rh4-FR4 wt cells
Experimental: (§1) Samples were analyzed after two washes by flow cytometry on a MACSQuant® cytometer (Miltenyi) and results were analyzed with FlowJo™ software (BD Biosciences, France). Phages displaying anti-mCherry nanobodies were used as negative control²⁴ and as positive control we used an anti-FGFR4 antibody (BT53, kindly provided by J. Khan lab, NCI, Bethesda, MD). For binding test of recombinant nanobodies, cells were detached with Accutase® (Stemcell Technologies) and washed with PBS. All following steps were performed on ice: 4×10⁵ cells were incubated with nanobody concentrations of 30 μg/ml for 1 h, washed once with PBS and incubated for an additional 30 min with anti His-tag FITC labeled antibody (LS-C57341, LSBioscience, diluted 1:10). The cells were washed once more with PBS and analyzed. Targeting liposomes were added at 0.5 mM final lipid concentration to cells in 96-well plates and incubated for 2 h at 37° C. and 5% CO₂. The cells were washed twice with PBS and detached with Accutase®.
(§2) We next wanted to test if nanobodies on the liposomal surface can still bind to FGFR4 expressing RMS cells. Rh4-FR4 wt and Rh4-FR4ko cells were incubated for 2 h with FGFR4-targeted liposomes or mCherry-targeted control liposomes under normal cell culture conditions. DiR fluorescence was subsequently analyzed by flow cytometry (FIG. 5).

[2] = target: T1, FGFR4 expressed on the surface of RMS …; assay: flow cytometry of DiR fluorescence, liposomes at 0.5 mM lipid on Rh4-FR4 wt cells, 2 h at 37 °C
Experimental: as §1, with “Binding validation of selected phages, recombinant nanobodies and decorated liposomes was performed on Rh4-FR4 wt and Rh4-FR4ko cells. Specificity of selected phage clones binding to FGFR4 was determined by flow cytometry in 96-well plates (Becton Dickinson). Cell surface staining of Rh4-FR4 wt or Rh4-FR4ko cells was performed on ice in PBS supplemented with 1% FBS. 80 μL phages+20 μL PBS/1% milk were incubated on 1×10⁵ cells for 1 h on ice. […] Samples” for “Samples”
as §2

T1 sequence (P22455 22-802 limits assumed): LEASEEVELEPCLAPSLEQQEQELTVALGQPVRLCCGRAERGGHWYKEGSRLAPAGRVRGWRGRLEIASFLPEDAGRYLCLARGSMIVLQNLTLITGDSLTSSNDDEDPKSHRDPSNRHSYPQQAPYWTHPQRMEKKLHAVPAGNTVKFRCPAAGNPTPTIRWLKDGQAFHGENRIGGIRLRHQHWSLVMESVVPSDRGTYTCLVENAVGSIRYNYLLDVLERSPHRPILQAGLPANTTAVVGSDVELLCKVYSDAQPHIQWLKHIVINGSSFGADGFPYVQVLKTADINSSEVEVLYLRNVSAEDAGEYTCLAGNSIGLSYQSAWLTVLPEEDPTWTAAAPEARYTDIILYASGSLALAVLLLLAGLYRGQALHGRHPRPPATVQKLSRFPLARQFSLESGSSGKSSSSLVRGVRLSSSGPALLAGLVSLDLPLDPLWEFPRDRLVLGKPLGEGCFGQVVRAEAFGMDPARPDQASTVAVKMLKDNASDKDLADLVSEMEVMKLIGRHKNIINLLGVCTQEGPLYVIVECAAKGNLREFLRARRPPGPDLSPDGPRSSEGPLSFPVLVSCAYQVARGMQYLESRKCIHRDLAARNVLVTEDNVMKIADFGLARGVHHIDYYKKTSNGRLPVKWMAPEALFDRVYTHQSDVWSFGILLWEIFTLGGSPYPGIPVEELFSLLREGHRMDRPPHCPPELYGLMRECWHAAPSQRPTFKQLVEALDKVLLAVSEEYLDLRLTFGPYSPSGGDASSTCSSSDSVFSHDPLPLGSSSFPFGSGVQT

Binder	fold increase of MFI over L-mCh [1] [fold]	MFI [2] [MFI]
L-A8, VCR-loaded fluorescent liposomes decorated with nanobody A8 (other, C-terminal cysteine coupled to DSPE-PEG-maleimide on the liposomal surface, Liposome of egg sphingomyelin, cholesterol, PEG-ceramide, DSPE-PEG-maleimide and DiR, loaded with vincristine; also called FGFR4-targeted liposomes; not shown: C-terminal Myc/6xHis-tag and an additional cysteine) VHH: EVQLQASGGGFVQPGGSLRLSCAASGRTYSRDTMGWFRQAPGKEREFVSAISSRHSHTTYYADSVKGRFTISRDNSKNTVYLQMNSLRAEDTATYYCAEWDVFDMHYALPPMWYWGQGTQVTVSS	6	300
L-B1, VCR-loaded fluorescent liposomes decorated with nanobody B1 (other, C-terminal cysteine coupled to DSPE-PEG-maleimide on the liposomal surface, Liposome as for L-A8; also called FGFR4-targeted liposomes; not shown: C-terminal Myc/6xHis-tag and an additional cysteine) VHH: EVQLQASGGGFVQPGGSLRLSCAASGYTSRSSAMGWFRQAPGKEREFVSAISDLTGYPYYYADSVKGRFTISRDNSKNTVYLQMNSLRAEDTATYYCAAYQDDKWTYGSQHGKYWGQGTQVTVSS	12	600
L-B5, VCR-loaded fluorescent liposomes decorated with nanobody B5 (other, C-terminal cysteine coupled to DSPE-PEG-maleimide on the liposomal surface, Liposome as for L-A8; also called FGFR4-targeted liposomes; not shown: C-terminal Myc/6xHis-tag and an additional cysteine) VHH: EVQLQASGGGFVQPGGSLRLSCAASGRTSWLTTMGWFRQAPGKEREFVSAISSFSSKQGYYADSVKGRFTISRDNSKNTVYLQMNSLRAEDTATYYCAYASYPRHQGNGRWKDFVEYWGQGTQVTVSS	34	1700
L-F8, VCR-loaded fluorescent liposomes decorated with nanobody F8 (other, C-terminal cysteine coupled to DSPE-PEG-maleimide on the liposomal surface, Liposome as for L-A8; also called FGFR4-targeted liposomes; not shown: C-terminal Myc/6xHis-tag and an additional cysteine) VHH: EVQLVESGGGLVQPGGSLRLSCAASGTGYALDDMGWVRQAPGKGLEWVSAISDDESMADYYADSVKGRFTISRDNSKNTVYLQMNSLRAEDTAVYYCASYKEYKYQSGHHYFAYRGQGTLVTVSS	28	1400
